T1: human Siglec15 on human-siglec15-2D3-1E1 cells (human, UniProt Q6ZMC9 20-328)
T1 construct: whole, on cells; Transfected HEK-293 cells; also called cell surface human Siglec15
T1 sequence (looked up): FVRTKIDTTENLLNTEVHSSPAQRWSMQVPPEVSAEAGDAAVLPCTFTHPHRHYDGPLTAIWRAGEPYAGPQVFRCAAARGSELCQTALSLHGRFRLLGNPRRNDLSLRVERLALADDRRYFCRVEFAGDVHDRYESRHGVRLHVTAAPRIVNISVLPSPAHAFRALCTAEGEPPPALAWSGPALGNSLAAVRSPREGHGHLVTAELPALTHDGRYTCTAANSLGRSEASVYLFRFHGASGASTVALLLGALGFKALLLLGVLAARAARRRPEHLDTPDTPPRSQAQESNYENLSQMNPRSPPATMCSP

T2: recombinant human Siglec15-his protein (human, UniProt Q6ZMC9 20-263)
T2 construct: In house made; Biotin-labeled in the capture ELISA
T2 sequence: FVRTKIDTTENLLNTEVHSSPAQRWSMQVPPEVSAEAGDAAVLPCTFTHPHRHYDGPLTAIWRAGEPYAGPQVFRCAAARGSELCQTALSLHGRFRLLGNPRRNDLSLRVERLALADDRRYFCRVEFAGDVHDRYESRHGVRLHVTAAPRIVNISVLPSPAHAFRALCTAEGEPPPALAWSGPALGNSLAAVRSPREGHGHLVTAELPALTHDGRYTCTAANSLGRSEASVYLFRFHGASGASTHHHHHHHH

B1: A1E10G7H9 (antibody, V domains shown)
VH: QVQLQESGPGLVKPSGTLSLTCAVSGGSISSSNWWHWVRQPPGKGLEWIGEIYHSGNTNYKPSLKSRVTISVDKSKNQFSLKLSSVTAADTAVYYCARDEGNGWSNAFDIWGQGTMVTVSS
VL: ENVLTQSPGTLSLSPGERVTLSCRASQSVSSSYLAWYQQKPGQAPRFLIYGASGGATGIPDRFSGSGSGTDFTLTISRLEPEDFAVYYCQQYGSSPITFGQGTRLEIK
notes: Fully human antibody from transgenic mouse hybridoma
B2: anti-Siglec15 benchmark (ch5G12) (antibody, human IgG1, kappa, V domains shown)
VH: QVQLQQPGAELVKPGASVKMSCKASGYTFTSYWITWVIQRPGQGLEWIGDIYCGSDTMHYNEKFKNKATLTVDTSSSTAYMQLSSLTSEDSAVYYCARWWDYGSSYDYFDYWGQGTTLTVSS
VL: DIKMTQSPSSMYASLGERVTITCKASQDINSYLSWFQQKPGKSPKTLIYRANRLVDGVPSRFSGSGSGQDYSLTISSLEYEDMGIYYCLQYDEFPYTFGGGTKLEIKR
notes: ch5G12 (US 20190202912A1); also called BM; Siglec15-ch5G9
B3: A2A5C7E8 (antibody, V domains shown)
VH: EVQLVQSGAEVKKPGESLRISCKGSGYSFTTYWISWVRQMPGKGLEWMGLIDPSDSYTNYSPSFQGHVTISTDKSISTAYLQWSSLKASDTAMYYCARGGYYGSEEDYWGQGTLVTVSS
VL: EIVLTQSPGTLSLSPGERATLSCRASQSVSSSRLAWFQQKSGQAPRLLIFDASSRATGIPDRFSGSGSGTDFTLTISRLEPEDFAVYYCQQYGSSPRTFGQGTKVEFK
notes: Fully human antibody from transgenic mouse hybridoma; also called A2A5C7E8-1
B4: A2A5C7E8-2 (antibody, human IgG1, kappa, V domains shown)
VH: B3 VH with D55E
VL: EIVLTQSPGTLSLSPGERATLSCRASQSVSSSRLAWFQQKSGQAPRLLIFDASSRATGIPDRFSGSGSGTDFTLTISRLEPEDFAVYYCQQYGSSPRTFGQGTKVEFKR
notes: Variant of A2A5C7E8 modified in VH CDR2 (X1 = E)
B5: A2A5C7E8-3 (antibody, human IgG1, kappa, V domains shown)
VH: B3 VH with Q65K
VL: B4 VL
notes: Variant of A2A5C7E8 modified in VH CDR2 (X2 = K)
B6: B2D7H7A3C1 (antibody, V domains shown)
VH: QVQLQQSGAELVRPGTSVQMSCKAAGYTFTNYWIGWVKQRPGHGLEWVGDIHPGINYTNNNEKFRGKATLTADTSSNTAYMQLRGLTSDDSAIYYCARVDYDYDGSYIMDYWGQGTSVTVSS
VL: QIVLSQSPALLSASPGEKVTMTCRASSSVSYMYWYQQKPGSSPKPWIYATSNLTSGVPARFSGSGSGTSYSLTISRVEAEDAATYFCQQWNSKPWTFGGGSKLEIR
notes: Mouse monoclonal antibody from hybridoma; also called mouse B2D7H7A3C1
B7: B2G12H3E8 (antibody, V domains shown)
VH: B6 VH with Q5K, A25V, N77S
VL: B6 VL
notes: Mouse monoclonal antibody from hybridoma; also called mouse B2G12H3E8
B8: B2H2H1H7 (antibody, V domains shown)
VH: B6 VH with N77S
VL: B6 VL with V3I, K102R
notes: Mouse monoclonal antibody from hybridoma; also called mouse B2H2H1H7; B2H2H1A7

Numbering of substitutions follows the chain as printed.

The first assay concerns the target T1, human Siglec15 on …. The assay is described as follows: cell based binding FACS on human-siglec15-2D3-1E1 cells. The method, then:
(§1) The binding activities of the anti-Siglec15 antibodies to cell surface Siglec15 were tested by flow cytometry (FACS), using in-house prepared human-siglec15-2D3-1E1 cells expressing human Siglec15 (amino acid residues Met1-Pro328 of uniprot #Q6ZMC9) on cell membranes. The human-siglec15-2D3-1E1 cells were prepared by transfecting HEK-293 cells (ATCC #CRL-1573) with pCMV-T-P plasmids inserted with human Siglec15 coding sequence between EcoRI and XbaI sites, following the instruction of lipofectamine 3000 transfection reagent (Thermo Fisher). The human-siglec15-2D3-1E1 cells were harvested from cell culture flasks, washed twice and re-suspended in phosphate buffered saline (PBS) containing 2% v/v Fetal Bovine Serum (FACS buffer). 2×10⁵ cells per well in 96 well-plates were incubated in 100 μL serially diluted anti-Siglec15 antibodies or controls (starting at 66.67 nM, 5-fold serial dilution) in FACS buffer for 40 minutes on ice. […] Following a 40-minute incubation at 4° C. in dark, cells were washed three times and re-suspended in FACS buffer. Fluorescence was measured using a Becton Dickinson FACS Canto II-HTS equipment. Data was analyzed using Graphpad Prism software and EC₅₀ values were reported.
In the case of B1, the EC50 turned out to be 0.182 nM. B2 yielded a concentration for a half-maximal effect (EC50) of 11.3 nM. Still for that read-out and setting: the same measure for B3: 24.1 nM.

For a further assay, the target named is T1, human Siglec15 on …. Described as above. This is another data set of the same source. The protocol:
as §1
Turning to B2, the EC50 stood at 0.877 nM. Still for that read-out and setting: the same measure for B3: 1.17 nM; for B4: 1.47 nM; for B5: 1.08 nM.

In a further assay the target is T1, human Siglec15 on …. The description is as above. This is another data set of the same source. The method, then: as §1
Molecule B2 came in with an EC50 of 11.6 nM. Still for that read-out and setting: the figure for B6 is 0.998 nM. Same read-out and setting: the same measure for B7: 1.17 nM; for B8: 1.91 nM.

A further assay addresses T2, recombinant human Siglec15-his protein. The assay is described as follows: capture ELISA, captured antibody, biotin-labeled human Siglec15-his in solution. The protocol:
Briefly, 96-well plates were coated with 100 μl of 2 μg/ml AffiniPure Goat Anti-Human IgG F(ab′)₂ fragment specific (Jackson Immuno Research, Cat #109-005-097) in PBS for 2 hours at 37° C. Plates were washed once with wash buffer (PBS+0.05% v/v Tween-20, PBST) and then blocked with 200 μl blocking buffer (5% w/v non-fatty milk in PBST) overnight at 4° C. Plates were washed 4 times and respectively incubated with 100 μl serially diluted anti-Siglec15 antibodies of the disclosure, the benchmark and hIgG (human immunoglobulin (pH4) for intravenous injection, Hualan Biological Engineering Inc.), 5-fold dilution in 2.5% w/v non-fatty milk in PBST starting at 66.7 nM, for 40 minutes at 37° C., and then washed 4 times again. Plates containing captured antibodies were incubated with 100 μl biotin-labeled human Siglec15-his protein (in house made with SEQ ID NO: 20, 145 ng/ml in 2.5% w/v non-fatty milk in PBST) for 40 minutes at 37° C., washed 4 times, and incubated with streptavidin conjugated HRP (1:10000 dilution in PBST, Jackson Immuno Research, Cat #016-030-084, 100 μl/well) for 40 minutes at 37° C. After a final wash, plates were incubated with 100 μl/well ELISA substrate TMB (Innoreagents, Cat #TMB-S-002). The reaction was stopped in 4 minutes at room temperature with 50 μl/well 1M H₂SO₄, and the absorbance of each well was read on a microplate reader using dual wavelength mode with 450 nm for TMB and 630 nm as the reference wavelength, then the OD (450-630) values were plotted against antibody concentration. Data was analyzed using Graphpad Prism software and EC₅₀ values were reported.
With B2, the EC50 came out at 1.79 nM. For the molecule B3, the EC50 stood at 0.0848 nM. The same measure, in the same setting: the same measure for B4: 0.502 nM. On to B5, for which the EC50 was 0.0902 nM.

The values above are taken from patent US20230106715A1 (BIOSION, published 2023).
